Values joined by “and” are separate entries in the source; they are usually repeats but may differ in a detail not shown here. Equal values may be shown once.
Legend:
[1] = Delignification of steam exploded sugarcane bagasse, total phenol by Folin-Ciocalteau
Experimental: Prior to enzymatic treatment, sugarcane bagasse was treated with 1% (v/v) phosphoric acid and steam exploded in a shotgun reactor at 190° C. for 10 min. The resultant bagasse was adjusted to pH 8.4 with 5M NaOH.
Stream exploded bagasse was delignified using the laccase, LccA, from H. volcanii US02. LccA was prepared for the delignification reaction by concentrating H. volcanii US02 culture supernatant 5-fold with ethanol precipitation and dialyzing the concentrate against 25 mM Tris buffer pH 8.4 supplemented with 200 mM NaCl (T buffer) with regenerated cellulose dialysis tubing (3500 Da molecular weight cut off; Thermo Scientific SnakeSkin Pleated Dialysis Tubing).
Bagasse samples were treated with LccA in a rotary shaker at 150 rpm with similar doses of heat killed LccA enzyme (HKE) as a control. Periodically clear supernatant obtained by centrifugation of small fraction of hydrolysate was used for total phenol estimation by Folin-Ciocalteau method (Singleton and Rossi, 1965). Optimal conditions were determined to be treatment with 3 Uml^1 LccA at 37° C. in T buffer at pH 8.4 for 3-6 h.

[2] = Laccase activity assay, oxidation of ABTS; assay type: biochemical
Text: (§1) FIG. 6D-Thermostability of LccA.

Oxidation of guaiacol = assay type: biochemical; conditions: presence or absence of copper supplementation
Oxidation of bilirubin = assay type: biochemical; conditions: US02-purified LccA
[3] = Laccase activity assay, oxidation of DMP with copper sulfate; assay type: biochemical; conditions: US02-purified LccA, standard conditions, CuSO4 added
[4] = Effect of mixed organo-solvents on LccA stability, residual SGZ oxidizing activity; assay type: physicochemical; conditions: 185 mM NaCl
Experimental: as §1
Commonly used water miscible organo-solvents (i.e., methanol, ethanol, dimethyl sulfoxide or DMSO and dimethylformamide or DMF) were examined for their compatibility with LccA stability and activity. […] LccA was relatively stable in all solvents examined, retaining nearly 75% of its activity after 24 h incubation in methanol or ethanol and over 50% of its activity after incubation in DMSO or DMF. The influence of water-miscible cosolvents on enzyme activity and stability has been examined for several fungal laccases (Rodakiewicz-Nowak et al., 1999; Robles et al., 2002; Milstein et al., 1993; Luterek et al., 1998; Cantarella et al., 2003). These prior studies coupled with the current findings reveal a wide-variety of laccases, including LccA, are stable and/or can support catalysis and conversion of phenolic substrates in water-organic mixed solvents. Since most of the substrates and mediators of laccases are insoluble or poorly soluble in water and the degree of polymerization of phenoxyl radicals is higher in aqueous media (Milstein et al., 1993), solvent stability is an important feature to consider in optimizing this group of enzymes.

[5] = Laccase activity assay, oxidation of SGZ (syringaldazine); conditions: for Km: read-out: Km, SGZ
Experimental: LccA (51 μg·ml^−1) activity was assayed at different temperatures (22° to 70° C.) in T buffer with 185 mM NaCl using SGZ (1 mM) as the substrate. […] LccA activity was assayed with SGZ (●) from pH 6 to 11 and with ABTS (◯) from pH 3 to 8 at 45° C. using following buffers: 100 mM sodium acetate for pH 3 to 6, 25 mM Tris-HCl for pH 7 to 10, and 25 mM glycine-NaOH for pH 11. Activity is expressed as percent relative to oxidation of ABTS at pH 6. […] Purified enzyme (50.6 μg·ml^−1) was pre-incubated in T buffer supplemented with 185 mM NaCl at temperatures from 37° to 70° C. for up to 60 h, as indicated. […] Activity is presented as percent relative to incubation on ice (37° C. (●), 45° C. (▪), 50° C. (▴), 55° C. (♦), 60° C. (◯), 65° C. (□) and 70° C. (Δ)); FIG. 6E-Salt tolerance of LccA protein. Purified enzyme (16.5 μg·ml^−1) was pre-incubated for 30 min in T buffer at pH 8.4 supplemented with different concentrations of NaCl (0 to 1.4 M) as indicated. Samples were diluted to a final concentration 4.12 μg·ml^−1 protein and 185 mM NaCl in T buffer and assayed for SGZ oxidizing activity under standard conditions. Residual activity was calculated as percent relative to incubation at 185 mM NaCl. […] Enzyme (7.5 μg·ml^−1) was incubated in T buffer with 185 mM NaCl in the presence and absence of 25% (v/v) solvent (DMSO, DMF, ethanol and methanol) at room temperature for 90 min (white bar), 3 h (grey bar) and 24 h (black bar). […] Activity is calculated as percent relative to incubation without solvent.
Enzyme activity was determined by change in absorbance, in triplicate, by UV/Visible-spectroscopy using a BioTek Synergy HT multi-detection microplate reader with a 96-well plate. Oxidation of substrate was monitored by absorbance increase (ABTS at 420 nm with ε=36,000 M^−1 cm^−1; SGZ at 526 nm with ε=65,000 M^−1 cm^−1; DMP at 468 nm with ε=49,000 M^−1 cm^−1; guaiacol at 436 nm with ε=26,600 M^−1 cm^−1; ferrous ammonium sulfate at 315 nm with ε=2,200 M^−1 cm^−1) or decrease (bilirubin at 440 nm with ε=56,300 M^−1 cm^−1). Standard assay conditions were 185 mM NaCl at 45° C. with the following buffers and substrate concentrations: 100 mM sodium acetate buffer at pH 6.0 for ABTS (at 5 mM), DMP (at 2 mM) and guaiacol (at 5 mM); 25 mM Tris-HCl buffer at pH 8.4 for SGZ (at 1 mM); and 200 mM Tris-HCl buffer at pH 8.4 for bilirubin (0.45 mM). Copper sulfate (1 mM) was included for assay of DMP oxidation. Oxidation of ferrous ammonium sulphate (1 mM) was monitored at 315 nm (ε=2,200 M^−1 cm^−1) with and without salt (185 mM NaCl) in 100 mM MES (morpholineethanesulfonic acid) buffer at pH 5 as well as 25 mM Tris-HCl buffer at pH 7.0 and 8.4. One unit of enzyme activity is defined as the amount of enzyme that oxidizes 1 μmol of substrate per min at standard conditions. […] Kinetic parameters (Km, Vmax, and kcat) were determined using the Michaelis-Menten equation. […] All assays and protein purifications were performed at least in triplicate.
To further evaluate the catalytic properties of LccA, the temperature, pH and salt optima of the purified enzyme were determined using SGZ and/or ABTS as substrates.

[6] = Thermostability of LccA, residual SGZ oxidizing activity after pre-incubation; assay type: physicochemical
Experimental: as §1
LccA was fully active after 1 h at 55° C. and 5 h at 50° C., with a half-live of inactivation at 50° C. of 31.5 h (FIG. 6D). […] (Fernandes et al., 2007). Likewise, the recently studied recombinant RL 5 laccase from rumen metagenome has maximal activity at 60° C. and is fully stable at this temperature for 200 min (Beloqui et al., 2006). […] (Martins et al., 2002).

[7] = Salt tolerance of LccA, residual SGZ oxidizing activity after pre-incubation in NaCl; assay type: physicochemical; conditions: 100 mM to at least 1.4 M NaCl, FIG. 6E
[8] = Oxidation of ferrous ammonium sulfate; assay type: biochemical; conditions: presence or absence of copper supplementation
[9] = LccA from culture broth of Hfx. volcanii BS01
[10] = LccA from culture broth of Hfx. volcanii US02

B1: LccA: Haloferax volcanii laccase of the multicopper oxidase family, SEQ ID NO: 2, secreted glycoprotein purified from culture broth of strain US02 (protein, listed as Haloferax volcanii)
chain: MTDWSRRRFLQTGAALGIAGTLPQTTTEVSAASPTLEKFVQPLPIPSVREPDGQRDGADAYEIAVTEFTQQLHPDLPETTVWGFDGSYPGPTIEADAGSPVHVRFDNSGLPSEHLFPVDDRLGGTTAENHPGYDGPVPEVRTVTHFHGLELDPANDGQSDMWTSPGGVEGPRFDSAWQELPMEQGRTTSTYHDHTLGITRLNAYAGLLGLYSITTDAERELGLPSGDYDIPLLLQDKEFNDDGSLHYPEEFVSAFLGDTAVVNGAVWPYVEVEPRRYRFRILNGANHRSFDLQLESESGSGVPTMYQFAPGHGFLESVVPIGPNGDLDSLLLTPFERGELVVDFSDHAGETLTLANGADMGPELTDLVEFRVSDPSTPPEDASADPTSLSLPTPASYDESDARVTREMTLGTEVRNGLITHTLNGHVFGDEDAPVYPQLGATEIWELQNESGGRHPIHLHLVTFRVIGRGPDGTQPPDPNELGPKDTVRVDPGERVRILVTFEGYTGQFPWHCHMLEHEDNKMMIPFVVENPVADYANEENVVDATGLTDAVGDWRNETLETEVLLEVIDQWRSGDEVA
modifications: glycosylated
- Phenol content after treatment ([1]; 3 h of treatment, from 1473±10 before): 1160±26 mg phenol per liter
- Reduction in the phenol content ([1]; 3 h of treatment, ~1 g dry weight bagasse in 15 ml T buffer): 21%
- Reduction in the phenol content ([1]; bagasse (~1 g dry weight equivalents) in 50 ml of T buffer): 38-43%
- pH optimum, ABTS oxidation ([2]; 45° C., FIG. 6C): 6.0
- Km [2, 9]: 700 µM
- kcat, ABTS [2, 9]: 10.0 s⁻¹
- Km [2, 10]: 671 µM
- kcat, ABTS [2, 10]: 9.9 s⁻¹
- Specific activity, ABTS oxidation ([2]; US02-purified LccA, standard conditions): 6.1±0.39 U·mg^−1
- Oxidation of guaiacol (Oxidation of guaiacol): did not oxidize
- Km (Oxidation of bilirubin): 236 µM
- kcat, bilirubin (Oxidation of bilirubin): 29 s⁻¹
- Specific activity, bilirubin oxidation (Oxidation of bilirubin; standard conditions): 25.5±1 U·mg^−1
- Specific activity, DMP oxidation [3]: 12.6±1.1 U·mg^−1
- Activity retained after incubation in solvent ([4]; 25% (v/v) DMSO or DMF): over 50%
- Activity retained after incubation in solvent ([4]; 24 h, 25% (v/v) methanol or ethanol): ~75%
- pH optimum, SGZ oxidization ([5]; 45° C., FIG. 6C): 8.4
- Activity relative to temperature optimum ([5]; 55° C.): 67%
- Activity relative to temperature optimum ([5]; 60° C.): 48%
- Activity relative to temperature optimum ([5]; 65° C.): 35%
- Activity relative to temperature optimum ([5]; 70° C.): 15%
- kcat, SGZ [5, 9]: 19.4 s⁻¹
- kcat, SGZ [5, 10]: 21.7 s⁻¹
- Specific activity, SGZ oxidation ([5]; LccA purified from H. volcanii US02, fraction F2 (upper fraction), MonoQ 10/10): F2, 6.7 U · mg^−1
- Salt concentration for optimal activity ([5]; NaCl or KCl in T buffer at 45° C., FIG. 6B): ~200 mM
- Activity in KCl higher than in NaCl ([5]; at ~200 mM salt): 1.5 fold
- Specific activity, SGZ oxidation ([5]; improved purification protocol from H. volcanii US02, MonoQ 10/10 pH 8.4): 51.5 U·mg^−1
- Specific activity, SGZ oxidation ([5]; purified from culture broth of Hfx. volcanii SB01 (C-terminal StrepII tag), final MonoQ 10/10 pH 8.4): 1.3 U·mg^−1 and 1.34 U·mg^−1
- Km [5, 9]: 67 µM
- Km [5, 10]: 35 µM
- Activity relative to temperature optimum ([5]; room temperature (25° C.)): ~75%
- Activity retained after incubation ([6]; 37° C., 2½ days): nearly all of its original activity
- Activity after pre-incubation ([6]; 1 h at 55° C.): fully active
- Activity after pre-incubation ([6]; 5 h at 50° C.): fully active
- Activity retained after incubation in NaCl [7]: nearly all of its original activity
- Oxidation of Fe^2+ (ferrous ammonium sulphate) [8]: did not oxidize
